Experimental data taken from patent US20080249606A1 (published 2008).

How the values were obtained:
[1] = biological target: T1, Blocking Reagent (catalogue number 11112589001, Roche Diagnostics) immobilized in ELISA wells; assay: ELISA, Blocking Reagent on Costar 2595 plate
T1 construct: One molecule for all four plate types; The plate is named under assay in each row

[2] = biological target: T1, Blocking Reagent (catalogue number …); assay: ELISA, Blocking Reagent on Nunc Immobilizer Amino plate
[3] = biological target: T1, Blocking Reagent (catalogue number …); assay: ELISA, Blocking Reagent on Greiner Microlon high-binding plate
[4] = biological target: T1, Blocking Reagent (catalogue number …); assay: ELISA, Blocking Reagent on Costar 9102 plate (second experiment, FIG. 2M)
[5] = biological target: T1, Blocking Reagent (catalogue number …); assay: ELISA, Blocking Reagent on Costar 9102 plate, tPA concentration series in PBS pH 7.3 with 10 mM εACA
[6] = biological target: T2, BSA incubated overnight with dextran sulphate 500,000 Da (DXS500k) (bovine, UniProt P02769 25-607); assay: ELISA, protein/DXS500k mixture immobilized on Greiner Microlon plate, tPA in 10 mM εACA, detection with antibody 374b
T2 construct: Same protein as m3, misfolded by contact with DXS500k (a non-protein polymer present in the mixture); also called BSA with DXS500k; DXS500k-protein mixture
T2 sequence (P02769 25-607 limits assumed): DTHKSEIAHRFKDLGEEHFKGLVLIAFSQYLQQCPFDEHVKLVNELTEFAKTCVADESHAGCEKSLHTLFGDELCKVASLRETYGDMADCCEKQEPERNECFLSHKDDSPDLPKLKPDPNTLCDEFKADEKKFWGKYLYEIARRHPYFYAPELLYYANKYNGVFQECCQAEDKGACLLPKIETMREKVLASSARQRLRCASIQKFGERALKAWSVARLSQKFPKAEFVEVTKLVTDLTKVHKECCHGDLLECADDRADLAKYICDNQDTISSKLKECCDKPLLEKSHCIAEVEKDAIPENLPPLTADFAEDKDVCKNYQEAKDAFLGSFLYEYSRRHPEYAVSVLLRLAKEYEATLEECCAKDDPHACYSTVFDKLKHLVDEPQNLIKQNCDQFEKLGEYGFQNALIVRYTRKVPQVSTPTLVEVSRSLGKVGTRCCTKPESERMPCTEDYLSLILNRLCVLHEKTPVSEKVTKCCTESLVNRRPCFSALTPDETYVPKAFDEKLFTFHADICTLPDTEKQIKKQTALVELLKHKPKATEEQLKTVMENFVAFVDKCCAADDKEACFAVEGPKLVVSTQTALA

B1: tissue-type plasminogen activator (tPA, Actilyse, Boehringer-Ingelheim) (enzyme, UniProt P00750 36-562, looked up)
chain: SYQVICRDEKTQMIYQQHQSWLRPVLRSNRVEYCWCNSGRAQCHSVPVKSCSEPRCFNGGTCQQALYFSDFVCQCPEGFAGKCCEIDTRATCYEDQGISYRGTWSTAESGAECTNWNSSALAQKPYSGRRPDAIRLGLGNHNYCRNPDRDSKPWCYVFKAGKYSSEFCSTPACSEGNSDCYFGNGSAYRGTHSLTESGASCLPWNSMILIGKVYTAQNPSAQALGLGKHNYCRNPDGDAKPWCHVLKNRRLTWEYCDVPSCSTCGLRQYSQPQFRIKGGLFADIASHPWQAAIFAKHRRSPGERFLCGGILISSCWILSAAHCFQERFPPHHLTVILGRTYRVVPGEEEQKFEVEKYIVHKEFDDDTYDNDIALLQLKSDSSRCAQESSVVRTVCLPPADLQLPDWTECELSGYGKHEALSPFYSERLKEAHVRLYPSSRCTSQHLLNRTVTDNMLCAGDTRSGGPQANLHDACQGDSGGPLVCLNDGRMTLVGIISWGLGCGQKDVPGVYTKVTNYLDWIRDNMRP
notes: Bought drug product
Q: With B1 as the binder, how does the Kd [1] read?
A: 30 nM

Q: And the Kd [2]?
A: 39 nM

Q: What about the Kd [3] of the same binder?
A: 23000 nM

Q: What about the Kd [4] of the same binder?
A: ~0.5 nM

Q: And the Kd [5]?
A: 0.6 nM

Q: And the “factor of increase of tPA binding against the protein incubated with buffer only” value [6]?
A: 1.3 fold
